Test results as given in PMC7707563, “Lack of evidence for expression and function of IL-39 in human immune cells” (PLoS ONE, 2020).

T1: human IL-23 p19 (aa20-189) (human, UniProt Q9NPF7 20-189)
T1 construct: human IL-23 p19 subunit, aa20-189, ORF in the mammalian expression vector pRS5a, untagged; The stated range lacks the protein's own signal peptide, yet the protein is secreted; also called IL-23A-p19; source: HEK293FT, transfected (pRS5a-IL23p19), in concentrated supernatant
T1 sequence (looked up): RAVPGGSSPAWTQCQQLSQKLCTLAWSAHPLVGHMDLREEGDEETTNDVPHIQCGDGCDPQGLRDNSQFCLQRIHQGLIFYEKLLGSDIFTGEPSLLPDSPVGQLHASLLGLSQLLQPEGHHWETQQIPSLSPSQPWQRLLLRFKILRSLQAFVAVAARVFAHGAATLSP

B1: C-terminally 10 x His-tagged EBI3 (natural protein, human, UniProt Q14213 21-229, looked up)
chain: RKGPPAALTLPRVQCRASRYPIAVDCSWTLPPAPNSTSPVSFIATYRLGMAARGHSWPCLQQTPTSTSCTITDVQLFSMAPYVLNVTAVHPWGSSSSFVPFITEHIIKPDPPEGVRLSPLAERQLQVQWEPPGSWPFPEIFSLKYWIRYKRQGAARFHRVGPIEATSFILRAVRPRARYYVQVAAQDLTDYGELSDWSLPATATMSLGK
notes: human Epstein-Barr Virus-induced 3 (EBI3), aa21-229, ORF in the mammalian expression vector pRS5a; The limits aa21-229 are printed for EBI3; also called EBI3-His; His-EBI3; source: HEK293FT, transfected (pRS5a-EBI3-His10), in concentrated supernatant; not shown: His10, C-terminal, kept

Experiments:
[1] = target: human IL-23 receptor on HEK-Blue IL-23 cells (human) (UniProt Q5VWK5)
Sequence of human IL-23 receptor on HEK-Blue IL-23 cells (human) (Q5VWK5 24-629): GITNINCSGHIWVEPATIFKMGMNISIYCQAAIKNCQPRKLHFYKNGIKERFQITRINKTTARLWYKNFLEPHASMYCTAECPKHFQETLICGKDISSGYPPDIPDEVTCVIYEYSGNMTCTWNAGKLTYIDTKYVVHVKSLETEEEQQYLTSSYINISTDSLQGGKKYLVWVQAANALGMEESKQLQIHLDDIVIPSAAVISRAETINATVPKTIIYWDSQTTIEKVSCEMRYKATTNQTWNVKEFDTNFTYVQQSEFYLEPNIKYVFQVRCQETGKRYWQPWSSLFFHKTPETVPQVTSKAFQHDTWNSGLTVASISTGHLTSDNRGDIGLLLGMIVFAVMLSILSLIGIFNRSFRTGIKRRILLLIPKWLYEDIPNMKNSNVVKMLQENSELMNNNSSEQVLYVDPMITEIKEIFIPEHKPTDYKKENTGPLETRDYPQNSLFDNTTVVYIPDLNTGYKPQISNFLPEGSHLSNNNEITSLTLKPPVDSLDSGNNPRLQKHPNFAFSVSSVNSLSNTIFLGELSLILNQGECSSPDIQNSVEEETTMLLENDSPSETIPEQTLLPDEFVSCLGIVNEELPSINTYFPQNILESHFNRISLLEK

[2] = target: T1, human IL-23 p19 (aa20-189); assay: ELISA; sandwich: plate coated with anti-p19 antibody, concentrated supernatants of p19 and EBI3-His transfected HEK293FT cells 2 hrs at room temperature, detection with biotinylated EBI3 antibody and HRP-Avidin; details: partners not purified

Molecule | STAT3 activity (SEAP reporter) over background in HEK-Blue IL-23 cells, various concentrations of IL-23, concentration-dependent; number printed for 2 pM IL-23 [1] | fold increase in optical density against supernatants of mock or single transfected cells [2]
recombinant human IL-23 (from UniProt Q9NPF7 20-189; P29460 23-328) (complex) | 2.5 fold | –
B1 | – | ~2.5 fold
